In paper PMC10764318:

Experiments:
Experiment in all cases: BLI
[1] = target: WRAIR-5001 (rhesus macaque | human)
[2] = target: WRAIR-5001 (rhesus macaque)
[3] = target: WRAIR-5004 (rhesus macaque)
[4] = target: WRAIR-5005 (rhesus macaque)
[5] = target: WRAIR-5011 (rhesus macaque)
Sequence of WRAIR-5011 (rhesus macaque) (VH, as listed by the source, chain 1 of 2): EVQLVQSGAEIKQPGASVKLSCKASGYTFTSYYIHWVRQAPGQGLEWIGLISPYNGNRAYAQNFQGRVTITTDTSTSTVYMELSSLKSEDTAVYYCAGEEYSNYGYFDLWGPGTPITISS
Sequence of WRAIR-5011 (rhesus macaque) (VL, as listed by the source, chain 2 of 2): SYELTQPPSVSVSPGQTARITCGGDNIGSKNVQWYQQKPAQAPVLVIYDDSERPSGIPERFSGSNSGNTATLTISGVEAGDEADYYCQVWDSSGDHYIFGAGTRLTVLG

Sequence of WRAIR-5004 (rhesus macaque) (VH, as listed by the source, chain 1 of 2): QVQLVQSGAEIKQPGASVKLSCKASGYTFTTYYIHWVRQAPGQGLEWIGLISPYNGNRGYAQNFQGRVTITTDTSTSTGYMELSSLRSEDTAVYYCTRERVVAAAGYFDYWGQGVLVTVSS
Sequence of WRAIR-5004 (rhesus macaque) (VL, as listed by the source, chain 2 of 2): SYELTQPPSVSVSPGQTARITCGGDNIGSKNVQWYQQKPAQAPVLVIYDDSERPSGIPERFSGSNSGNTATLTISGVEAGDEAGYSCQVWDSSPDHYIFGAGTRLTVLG
Sequence of WRAIR-5005 (rhesus macaque) (VH, as listed by the source, chain 1 of 2): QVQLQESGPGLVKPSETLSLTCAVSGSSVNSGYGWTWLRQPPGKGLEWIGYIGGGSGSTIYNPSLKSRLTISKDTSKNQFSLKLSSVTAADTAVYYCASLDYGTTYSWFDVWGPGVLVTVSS
Sequence of WRAIR-5005 (rhesus macaque) (VL, as listed by the source, chain 2 of 2): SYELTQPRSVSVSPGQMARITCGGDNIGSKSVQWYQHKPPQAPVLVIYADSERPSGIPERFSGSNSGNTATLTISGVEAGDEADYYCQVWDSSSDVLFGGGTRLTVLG
Sequence of WRAIR-5001 (rhesus macaque) (VH, as listed by the source, chain 1 of 2): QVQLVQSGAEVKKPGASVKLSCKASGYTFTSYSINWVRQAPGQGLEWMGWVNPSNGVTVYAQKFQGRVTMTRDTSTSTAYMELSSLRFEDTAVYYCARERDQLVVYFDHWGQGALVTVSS
Sequence of WRAIR-5001 (rhesus macaque) (VL, as listed by the source, chain 2 of 2): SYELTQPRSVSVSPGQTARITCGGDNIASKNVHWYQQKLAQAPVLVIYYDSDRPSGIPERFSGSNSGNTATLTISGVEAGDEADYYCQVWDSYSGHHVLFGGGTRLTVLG

SARS-CoV-1 RBD (domain or fragment)
Kd [1]: 3.45 nM | koff [2]: 0.00061 s⁻¹ | kon [2]: 177000 M⁻¹ s⁻¹ | Kd [3]: 28.9 nM | koff [3]: 0.00458 s⁻¹ | kon [3]: 158000 M⁻¹ s⁻¹ | Kd [4]: 154 nM | koff [4]: 0.00318 s⁻¹ | kon [4]: 20700 M⁻¹ s⁻¹ | Kd [5]: 12.7 nM | koff [5]: 0.0014 s⁻¹ | kon [5]: 110000 M⁻¹ s⁻¹
